According to US20250339569A1 (3B PHARMACEUTICALS, published 2025):
Starred links: 1 amine or outer side, 2 acyl side, 3 side chain; linkers in the order of their positions; H or OH if unused. Positions of bridges follow the written chain, without caps; N, C: chain ends. Non-standard residues stand in square brackets, D forms with d. Groups on a side chain read outwards from the residue. Primed or numbered codes have the meaning given here. No end group written: not given here. *: point of attachment. APAc″ = 2-(4-(amino)piperidin-1-yl)acetic acid, NC1CCN(CC(=O)*)CC1; DOTA = O=C(O)CN1CCN(CC(=O)O)CCN(CC(=O)*)CCN(CC(=O)O)CC1; mXylylene = c1cc(C[*:1])cc(C[*:2])c1; 3Amb = NCc1cccc(C(=O)O)c1; dNMeA = CN[C@H](C)C(=O)O; 4Amc = not defined here; Apr = not defined here; AEEA = NCCOCCOCC(=O)O; Sar = CNCC(=O)O

Biological target: human carbonic anhydrase 9 (CAIX) (human, UniProt Q16790 38-459)
Experiment: FACS competition on HT-29 cells against tracer 3BP-2776; pIC50 category A = pIC50 >8.0
Experimental: CAIX-expressing human HT-29 colorectal cancer cells (DSMZ, RRID: CVCL_0320) were cultured in McCoys's 5A modified medium (Biochrom, #F1015) including 10% fetal calf serum (FCS), 2 mM L-glutamine, 100 U/ml penicillin and 100 μg/mL streptomycin. Cells were detached with Accutase (Biolegend, #423201) and washed in FACS buffer (PBS including 1% FCS). Cells were diluted in FACS buffer to a final concentration of 500.000 cells per ml. 200 μL of the cell suspension were transferred to a u-shaped non-binding 96-well plate (Greiner) and cells were washed in ice-cold FACS buffer.
When biotinylated compounds were used an additional incubation step with 1 μg/mL APC-Streptavidin (Miltenyi; #130-106-791) in 50 μL FACS buffer for 30 minutes on ice was performed.
Cells were washed twice with ice-cold FACS buffer and analyzed in an Attune NxT flow cytometer (Thermo Fisher). Median fluorescence intensities (MFI) of the APC/Cy5-channel were calculated by Attune NxT software.

B1: 3BP-3280 (peptide)
peptide: Ac-VYCE[dA]DWLTWAC-NH2
modifications: linker 3-12 via mXylylene
SMILES: CC(=O)N[C@H](C(=O)N[C@@H](Cc1ccc(O)cc1)C(=O)N[C@H]1CSCc2cccc(c2)CSC[C@@H](C(N)=O)NC(=O)[C@H](C)NC(=O)[C@H](Cc2c[nH]c3ccccc23)NC(=O)[C@H]([C@@H](C)O)NC(=O)[C@H](CC(C)C)NC(=O)[C@H](Cc2c[nH]c3ccccc23)NC(=O)[C@H](CC(=O)O)NC(=O)[C@@H](C)NC(=O)[C@H](CCC(=O)O)NC1=O)C(C)C
notes: also called Ac-Val-Tyr-[Cys(3MeBn)-Glu-ala-Asp-Trp-Leu-Thr-Trp-Ala-Cys]-NH2
  pIC50: > 8 pic50

B2: 3BP-3429 (peptide)
peptide: {DOTA-3Amb}-VYCE[dP]DWLTWAC-NH2
modifications: linker 3-12 via mXylylene
SMILES: CC(C)C[C@@H]1NC(=O)[C@H](Cc2c[nH]c3ccccc23)NC(=O)[C@H](CC(=O)O)NC(=O)[C@H]2CCCN2C(=O)[C@H](CCC(=O)O)NC(=O)[C@@H](NC(=O)[C@H](Cc2ccc(O)cc2)NC(=O)[C@@H](NC(=O)c2cccc(CNC(=O)CN3CCN(CC(=O)O)CCN(CC(=O)O)CCN(CC(=O)O)CC3)c2)C(C)C)CSCc2cccc(c2)CSC[C@@H](C(N)=O)NC(=O)[C@H](C)NC(=O)[C@H](Cc2c[nH]c3ccccc23)NC(=O)[C@H]([C@@H](C)O)NC1=O
notes: also called DOTA-Mamb-Val-Tyr-[Cys(3MeBn)-Glu-pro-Asp-Trp-Leu-Thr-Trp-Ala-Cys]-NH2
  pIC50: > 8 pic50

B3: 3BP-3281 (peptide)
peptide: Ac-VYCE[dNMeA]DWLTWAC-NH2
modifications: linker 3-12 via mXylylene
SMILES: CC(=O)N[C@H](C(=O)N[C@@H](Cc1ccc(O)cc1)C(=O)N[C@H]1CSCc2cccc(c2)CSC[C@@H](C(N)=O)NC(=O)[C@H](C)NC(=O)[C@H](Cc2c[nH]c3ccccc23)NC(=O)[C@H]([C@@H](C)O)NC(=O)[C@H](CC(C)C)NC(=O)[C@H](Cc2c[nH]c3ccccc23)NC(=O)[C@H](CC(=O)O)NC(=O)[C@@H](C)N(C)C(=O)[C@H](CCC(=O)O)NC1=O)C(C)C
notes: also called Ac-Val-Tyr-[Cys(3MeBn)-Glu-nma-Asp-Trp-Leu-Thr-Trp-Ala-Cys]-NH2
  pIC50: > 8 pic50

B4: 3BP-3313 (peptide)
peptide: Ac-VYCE[Sar]DWLTWAC-NH2
modifications: linker 3-12 via mXylylene
SMILES: CC(=O)N[C@H](C(=O)N[C@@H](Cc1ccc(O)cc1)C(=O)N[C@H]1CSCc2cccc(c2)CSC[C@@H](C(N)=O)NC(=O)[C@H](C)NC(=O)[C@H](Cc2c[nH]c3ccccc23)NC(=O)[C@H]([C@@H](C)O)NC(=O)[C@H](CC(C)C)NC(=O)[C@H](Cc2c[nH]c3ccccc23)NC(=O)[C@H](CC(=O)O)NC(=O)CN(C)C(=O)[C@H](CCC(=O)O)NC1=O)C(C)C
notes: also called Ac-Val-Tyr-[Cys(3MeBn)-Glu-Nmg-Asp-Trp-Leu-Thr-Trp-Ala-Cys]-NH2
  pIC50: > 8 pic50

B5: 3BP-3565 (peptide)
peptide: Ac-VYCE[dP]DWLTWSC-NH2
modifications: linker 3-12 via mXylylene
SMILES: CC(=O)N[C@H](C(=O)N[C@@H](Cc1ccc(O)cc1)C(=O)N[C@H]1CSCc2cccc(c2)CSC[C@@H](C(N)=O)NC(=O)[C@H](CO)NC(=O)[C@H](Cc2c[nH]c3ccccc23)NC(=O)[C@H]([C@@H](C)O)NC(=O)[C@H](CC(C)C)NC(=O)[C@H](Cc2c[nH]c3ccccc23)NC(=O)[C@H](CC(=O)O)NC(=O)[C@H]2CCCN2C(=O)[C@H](CCC(=O)O)NC1=O)C(C)C
notes: also called Ac-Val-Tyr-[Cys(3MeBn)-Glu-pro-Asp-Trp-Leu-Thr-Trp-Ser-Cys]-NH2
  pIC50: > 8 pic50

B6: 3BP-3568 (peptide)
peptide: Ac-IYCE[dP]DWLTWSC-NH2
modifications: linker 3-12 via mXylylene
SMILES: CC[C@H](C)[C@H](NC(C)=O)C(=O)N[C@@H](Cc1ccc(O)cc1)C(=O)N[C@H]1CSCc2cccc(c2)CSC[C@@H](C(N)=O)NC(=O)[C@H](CO)NC(=O)[C@H](Cc2c[nH]c3ccccc23)NC(=O)[C@H]([C@@H](C)O)NC(=O)[C@H](CC(C)C)NC(=O)[C@H](Cc2c[nH]c3ccccc23)NC(=O)[C@H](CC(=O)O)NC(=O)[C@H]2CCCN2C(=O)[C@H](CCC(=O)O)NC1=O
notes: also called Ac-Ile-Tyr-[Cys(3MeBn)-Glu-pro-Asp-Trp-Leu-Thr-Trp-Ser-Cys]-NH2
  pIC50: > 8 pic50

B7: 3BP-3434 (peptide)
peptide: Ac-VYCE[dP]DWLTWAC
modifications: linker 3-12 via mXylylene; not fully specified (C-terminus)
notes: also called Ac-Val-Tyr-[Cys(3MeBn)-Glu-pro-Asp-Trp-Leu-Thr-Trp-Ala-Cys]-Ape-NH-DOTA′
  pIC50: > 8 pic50

B8: 3BP-3430 (peptide)
peptide: {DOTA-4Amc}-VYCE[dP]DWLTWAC-NH2
modifications: linker 3-12 via mXylylene; reading uncertain
notes: also called DOTA-4Amc-Val-Tyr-[Cys(3MeBn)-Glu-pro-Asp-Trp-Leu-Thr-Trp-Ala-Cys]-NH2
  pIC50: > 8 pic50

B9: 3BP-3282 (peptide)
peptide: Ac-VYCE[dP]DWLTWAC-NH2
modifications: linker 3-12 via mXylylene
SMILES: CC(=O)N[C@H](C(=O)N[C@@H](Cc1ccc(O)cc1)C(=O)N[C@H]1CSCc2cccc(c2)CSC[C@@H](C(N)=O)NC(=O)[C@H](C)NC(=O)[C@H](Cc2c[nH]c3ccccc23)NC(=O)[C@H]([C@@H](C)O)NC(=O)[C@H](CC(C)C)NC(=O)[C@H](Cc2c[nH]c3ccccc23)NC(=O)[C@H](CC(=O)O)NC(=O)[C@H]2CCCN2C(=O)[C@H](CCC(=O)O)NC1=O)C(C)C
notes: also called Ac-Val-Tyr-[Cys(3MeBn)-Glu-pro-Asp-Trp-Leu-Thr-Trp-Ala-Cys]-NH2
  pIC50: > 8 pic50

B10: 3BP-3433 (peptide)
peptide: Ac-VYCE[dP]DWLTWAC
modifications: linker 3-12 via mXylylene; not fully specified (C-terminus)
notes: The printed formula ends at '-Ape-NH'; also called Ac-Val-Tyr-[Cys(3MeBn)-Glu-pro-Asp-Trp-Leu-Thr-Trp-Ala-Cys]-Mamb-Ape-NH
  pIC50: > 8 pic50

B11: 3BP-3304 (peptide)
peptide: Ac-VYCE[Sar]DWLTWGC-NH2
modifications: linker 3-12 via mXylylene
SMILES: CC(=O)N[C@H](C(=O)N[C@@H](Cc1ccc(O)cc1)C(=O)N[C@H]1CSCc2cccc(c2)CSC[C@@H](C(N)=O)NC(=O)CNC(=O)[C@H](Cc2c[nH]c3ccccc23)NC(=O)[C@H]([C@@H](C)O)NC(=O)[C@H](CC(C)C)NC(=O)[C@H](Cc2c[nH]c3ccccc23)NC(=O)[C@H](CC(=O)O)NC(=O)CN(C)C(=O)[C@H](CCC(=O)O)NC1=O)C(C)C
notes: also called Ac-Val-Tyr-[Cys(3MeBn)-Glu-Nmg-Asp-Trp-Leu-Thr-Trp-Gly-Cys]-NH2
  pIC50: > 8 pic50

B12: 3BP-3479 (peptide)
peptide: Ac-VYCE[dP]DWLTWE([Apr-AEEA-DOTA])C-NH2
modifications: linker 3-12 via mXylylene; reading uncertain
notes: also called Ac-Val-Tyr-[Cys(3MeBn)-Glu-pro-Asp-Trp-Leu-Thr-Trp-Glu(NH-Apr-O2Oc-DOTA′)-Cys]-NH2
  pIC50: > 8 pic50

B13: 3BP-3566 (peptide)
peptide: Ac-SYCE[dP]DWLTWSC-NH2
modifications: linker 3-12 via mXylylene
SMILES: CC(=O)N[C@@H](CO)C(=O)N[C@@H](Cc1ccc(O)cc1)C(=O)N[C@H]1CSCc2cccc(c2)CSC[C@@H](C(N)=O)NC(=O)[C@H](CO)NC(=O)[C@H](Cc2c[nH]c3ccccc23)NC(=O)[C@H]([C@@H](C)O)NC(=O)[C@H](CC(C)C)NC(=O)[C@H](Cc2c[nH]c3ccccc23)NC(=O)[C@H](CC(=O)O)NC(=O)[C@H]2CCCN2C(=O)[C@H](CCC(=O)O)NC1=O
notes: also called Ac-Ser-Tyr-[Cys(3MeBn)-Glu-pro-Asp-Trp-Leu-Thr-Trp-Ser-Cys]-NH2
  pIC50: > 8 pic50

B14: 3BP-3307 (peptide)
peptide: Ac-VYCE[Sar]DWLGWQC-NH2
modifications: linker 3-12 via mXylylene
SMILES: CC(=O)N[C@H](C(=O)N[C@@H](Cc1ccc(O)cc1)C(=O)N[C@H]1CSCc2cccc(c2)CSC[C@@H](C(N)=O)NC(=O)[C@H](CCC(N)=O)NC(=O)[C@H](Cc2c[nH]c3ccccc23)NC(=O)CNC(=O)[C@H](CC(C)C)NC(=O)[C@H](Cc2c[nH]c3ccccc23)NC(=O)[C@H](CC(=O)O)NC(=O)CN(C)C(=O)[C@H](CCC(=O)O)NC1=O)C(C)C
notes: also called Ac-Val-Tyr-[Cys(3MeBn)-Glu-Nmg-Asp-Trp-Leu-Gly-Trp-Gln-Cys]-NH2
  pIC50: > 8 pic50

B15: 3BP-3284 (peptide)
peptide: Ac-VYCE[dA]DWLTWGC-NH2
modifications: linker 3-12 via mXylylene
SMILES: CC(=O)N[C@H](C(=O)N[C@@H](Cc1ccc(O)cc1)C(=O)N[C@H]1CSCc2cccc(c2)CSC[C@@H](C(N)=O)NC(=O)CNC(=O)[C@H](Cc2c[nH]c3ccccc23)NC(=O)[C@H]([C@@H](C)O)NC(=O)[C@H](CC(C)C)NC(=O)[C@H](Cc2c[nH]c3ccccc23)NC(=O)[C@H](CC(=O)O)NC(=O)[C@@H](C)NC(=O)[C@H](CCC(=O)O)NC1=O)C(C)C
notes: also called Ac-Val-Tyr-[Cys(3MeBn)-Glu-ala-Asp-Trp-Leu-Thr-Trp-Gly-Cys]-NH2
  pIC50: > 8 pic50

B16: 3BP-3478 (peptide)
peptide: Ac-VYCE[dP]DWLTWE([Apr-DOTA])C-NH2
modifications: linker 3-12 via mXylylene; reading uncertain
notes: also called Ac-Val-Tyr-[Cys(3MeBn)-Glu-pro-Asp-Trp-Leu-Thr-Trp-Glu(NH-Apr-DOTA′)-Cys]-NH2
  pIC50: > 8 pic50

B17: 3BP-3570 (peptide)
peptide: Ac-VFCE[dP]DWLTWSC-NH2
modifications: linker 3-12 via mXylylene
SMILES: CC(=O)N[C@H](C(=O)N[C@@H](Cc1ccccc1)C(=O)N[C@H]1CSCc2cccc(c2)CSC[C@@H](C(N)=O)NC(=O)[C@H](CO)NC(=O)[C@H](Cc2c[nH]c3ccccc23)NC(=O)[C@H]([C@@H](C)O)NC(=O)[C@H](CC(C)C)NC(=O)[C@H](Cc2c[nH]c3ccccc23)NC(=O)[C@H](CC(=O)O)NC(=O)[C@H]2CCCN2C(=O)[C@H](CCC(=O)O)NC1=O)C(C)C
notes: also called Ac-Val-Phe-[Cys(3MeBn)-Glu-pro-Asp-Trp-Leu-Thr-Trp-Ser-Cys]-NH2
  pIC50: > 8 pic50

B18: 3BP-3567 (peptide)
peptide: Ac-TYCE[dP]DWLTWSC-NH2
modifications: linker 3-12 via mXylylene
SMILES: CC(=O)N[C@H](C(=O)N[C@@H](Cc1ccc(O)cc1)C(=O)N[C@H]1CSCc2cccc(c2)CSC[C@@H](C(N)=O)NC(=O)[C@H](CO)NC(=O)[C@H](Cc2c[nH]c3ccccc23)NC(=O)[C@H]([C@@H](C)O)NC(=O)[C@H](CC(C)C)NC(=O)[C@H](Cc2c[nH]c3ccccc23)NC(=O)[C@H](CC(=O)O)NC(=O)[C@H]2CCCN2C(=O)[C@H](CCC(=O)O)NC1=O)[C@@H](C)O
notes: also called Ac-Thr-Tyr-[Cys(3MeBn)-Glu-pro-Asp-Trp-Leu-Thr-Trp-Ser-Cys]-NH2
  pIC50: > 8 pic50

B19: 3BP-3432 (peptide)
peptide: {DOTA-APAc″}-VYCE[dP]DWLTWAC-NH2
modifications: linker 3-12 via mXylylene
notes: also called DOTA-APAc-Val-Tyr-[Cys(3MeBn)-Glu-pro-Asp-Trp-Leu-Thr-Trp-Ala-Cys]-NH2
  pIC50: > 8 pic50
